The target in experiment [1] is actin (rabbit fast twitch skeletal muscle), reconstituted as actin filament in gelsolin-extracted bovine myocardium (rabbit) (UniProt P68135).
Experiment [2] shares this target. This is another data set of the same source.

As for “myosin of bovine myocardium (thick filament, cross-bridges) (from UniProt Q9BE39 1-1935) (complex)”, in experiment [1], the Rigor stiffness (100 Hz, 25°C), fibres reconstituted with nfTm and Tn stood at 166 T ac; the Rigor stiffness (100 Hz, 25°C), fibres reconstituted with ∆2Tm and Tn came out at 201 T ac; the Rigor stiffness (100 Hz, 25°C), fibres reconstituted with ∆3Tm and Tn was 249 T ac; the Tension (T m), steady-state active tension in the standard activating solution at 25°C, fibres reconstituted with nfTm and Tn is 1.51 T ac. Besides, in experiment [1], the Tension (T m), steady-state active tension in the standard activating solution at 25°C, fibres reconstituted with ∆2Tm and Tn stood at 1.65 T ac; the Tension (T m), steady-state active tension in the standard activating solution at 25°C, fibres reconstituted with ∆3Tm and Tn is 0.91 T ac. In experiment [2], this substance came in with a Stiffness at pCa 7 (25°C), fibres reconstituted with acetyl Tm (from bovine myocardium) and Tn of 0.038 T ac; a Stiffness at pCa 7 (25°C), fibres reconstituted with nfTm and Tn of 0.044 T ac; a Stiffness at pCa 7 (25°C), fibres reconstituted with ∆2Tm and Tn of 0.039 T ac; a Stiffness at pCa 7 (25°C), fibres reconstituted with ∆3Tm and Tn of 0.04 T ac. In experiment [2], this substance yielded a Tension at pCa 7 (25°C), fibres reconstituted with acetyl Tm (from bovine myocardium) and Tn of 0.168 T ac; a Tension at pCa 7 (25°C), fibres reconstituted with nfTm and Tn of 0.065 T ac; a Tension at pCa 7 (25°C), fibres reconstituted with ∆2Tm and Tn of 0.109 T ac; a Tension at pCa 7 (25°C), fibres reconstituted with ∆3Tm and Tn of 0.196 T ac.

For the origin of these results see paper PMC2814127.
